Among the data in paper PMC4434323 are binding signal (PBM E-score (-0.5 to 0.5)) values, retold here.

In series [1] the target is T1, nhr-232 (Y22F5A.1) (Caenorhabditis elegans) (UniProt A0A486WVR6).
T1 sequence: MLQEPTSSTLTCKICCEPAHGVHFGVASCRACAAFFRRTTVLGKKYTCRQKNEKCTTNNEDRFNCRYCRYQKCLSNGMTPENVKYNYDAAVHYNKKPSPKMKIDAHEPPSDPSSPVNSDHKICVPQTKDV

Series [2] addresses T2, nhr-142 (F44E7.8) (Caenorhabditis elegans) (UniProt J7SF93).
T2 sequence: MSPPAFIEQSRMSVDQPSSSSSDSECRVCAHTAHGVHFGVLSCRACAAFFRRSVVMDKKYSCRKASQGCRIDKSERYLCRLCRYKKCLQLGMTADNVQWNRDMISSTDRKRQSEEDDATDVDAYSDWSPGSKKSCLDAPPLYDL

The target in series [3] is T3, nhr-42 (C33G8.6) (Caenorhabditis elegans) (UniProt O76828).
T3 sequence: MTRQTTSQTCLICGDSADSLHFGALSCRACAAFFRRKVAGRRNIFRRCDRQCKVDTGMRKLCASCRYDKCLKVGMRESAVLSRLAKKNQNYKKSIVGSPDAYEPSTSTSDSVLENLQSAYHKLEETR

For series [4], the target named is T4, nhr-70 (Y51A2D.17) (Caenorhabditis elegans) (UniProt G5EEL3).
T4 sequence: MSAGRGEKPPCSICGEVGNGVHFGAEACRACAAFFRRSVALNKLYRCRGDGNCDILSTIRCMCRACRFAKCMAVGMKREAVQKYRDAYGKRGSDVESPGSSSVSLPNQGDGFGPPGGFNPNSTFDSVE

Series [5] addresses T5, hlh-12 (C28C12.8) (Caenorhabditis elegans) (UniProt Q18277).
T5 sequence: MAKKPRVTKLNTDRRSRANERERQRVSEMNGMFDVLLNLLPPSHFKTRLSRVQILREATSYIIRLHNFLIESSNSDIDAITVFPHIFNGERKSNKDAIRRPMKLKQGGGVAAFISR

Series [6] concerns the target T6, skn-1 (T19E7.2) (Caenorhabditis elegans) (UniProt P34707).
T6 sequence: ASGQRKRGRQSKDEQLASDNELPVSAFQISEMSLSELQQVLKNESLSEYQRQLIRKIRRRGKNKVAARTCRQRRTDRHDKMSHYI

Series [7] addresses T7, mbr-1 (T01C1.2) (Caenorhabditis elegans) (UniProt G5EGQ5).
T7 sequence: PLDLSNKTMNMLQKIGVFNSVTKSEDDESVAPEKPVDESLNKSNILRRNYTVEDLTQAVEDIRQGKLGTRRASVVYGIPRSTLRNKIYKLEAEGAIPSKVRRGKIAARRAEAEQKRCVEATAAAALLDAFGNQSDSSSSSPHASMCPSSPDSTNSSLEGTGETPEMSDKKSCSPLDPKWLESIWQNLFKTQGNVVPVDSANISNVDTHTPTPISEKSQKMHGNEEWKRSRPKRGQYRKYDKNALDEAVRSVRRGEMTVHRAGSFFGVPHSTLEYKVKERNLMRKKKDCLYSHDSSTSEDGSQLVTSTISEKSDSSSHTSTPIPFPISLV

Series [8] addresses T8, nhr-66 (T09A12.4) (Caenorhabditis elegans) (UniProt H2KYJ8).
T8 sequence: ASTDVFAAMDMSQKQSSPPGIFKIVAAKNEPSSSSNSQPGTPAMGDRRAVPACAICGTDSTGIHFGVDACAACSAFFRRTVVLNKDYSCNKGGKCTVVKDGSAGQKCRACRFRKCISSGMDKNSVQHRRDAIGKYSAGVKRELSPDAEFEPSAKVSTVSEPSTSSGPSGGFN

The target of series [9] is T9, odr-7 (T18D3.2) (Caenorhabditis elegans) (UniProt P41933).
T9 sequence: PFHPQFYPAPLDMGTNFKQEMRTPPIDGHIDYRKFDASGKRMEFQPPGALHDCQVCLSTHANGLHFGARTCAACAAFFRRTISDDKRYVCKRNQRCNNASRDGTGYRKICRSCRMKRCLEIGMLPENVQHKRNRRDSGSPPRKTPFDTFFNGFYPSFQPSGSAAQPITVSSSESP

Consider “AAGTCACA (double strand) [8-mer AAGTCACA]”, for which the figures for the binding signal (PBM E-score (-0.5 to 0.5)) in series [1], in series [2] and in series [3] were 0.498, 0.496 and 0.494, respectively. With “TGGCTACA (double strand) [8-mer TGGCTACA]”, in series [4], the binding signal (PBM E-score (-0.5 to 0.5)) turned out to be 0.48. Regarding “GTCACAAA (double strand) [8-mer GTCACAAA]”, the binding signal (PBM E-score (-0.5 to 0.5)) in series [1] is 0.497; in series [2] it was 0.498; in series [3] it was 0.48. “ACAGCTGG (double strand) [8-mer ACAGCTGG]” returned a binding signal (PBM E-score (-0.5 to 0.5)) in [5] of 0.481. The sequence “ATGACAAA (double strand) [8-mer ATGACAAA]” returned a binding signal (PBM E-score (-0.5 to 0.5)) in [6] of 0.493.

As to “TGATGACA (double strand) [8-mer TGATGACA]”, the binding signal (PBM E-score (-0.5 to 0.5)) in series [6] amounted to 0.495. For “GAGGGGCC (double strand) [8-mer GAGGGGCC]”, the binding signal (PBM E-score (-0.5 to 0.5)) in [7] was determined as 0.489. In turn, “GGATGACA (double strand) [8-mer GGATGACA]” came in with a binding signal (PBM E-score (-0.5 to 0.5)) in series [6] of 0.489. “AGGCCCCC (double strand) [8-mer AGGCCCCC]” gave a binding signal (PBM E-score (-0.5 to 0.5)) in series [7] of 0.495.

“GATGATAA (double strand) [8-mer GATGATAA]”: the binding signal (PBM E-score (-0.5 to 0.5)) in [6] is 0.488.

Regarding “AGTCACAC (double strand) [8-mer AGTCACAC]”, the binding signal (PBM E-score (-0.5 to 0.5)) in [1] worked out at 0.48; in series [2] it was 0.49; in series [3], 0.489. In series [7], “AGCCCCCC (double strand) [8-mer AGCCCCCC]” displayed a binding signal (PBM E-score (-0.5 to 0.5)) of 0.491. In the case of “GTCATCAC (double strand) [8-mer GTCATCAC]”, the binding signal (PBM E-score (-0.5 to 0.5)) in [6] was 0.492. For the sequence “GGCTACAC (double strand) [8-mer GGCTACAC]”, the binding signal (PBM E-score (-0.5 to 0.5)) in [4] was found to be 0.487.

As to “GGGGCCAA (double strand) [8-mer GGGGCCAA]”, the binding signal (PBM E-score (-0.5 to 0.5)) in series [7] was found to be 0.488. Turning to “AACAGATG (double strand) [8-mer AACAGATG]”, the binding signal (PBM E-score (-0.5 to 0.5)) in series [5] stood at 0.468. With “GACTACAC (double strand) [8-mer GACTACAC]”, the binding signal (PBM E-score (-0.5 to 0.5)) in series [4] was 0.49; in [8] it was 0.484. The sequence “ACATCTGG (double strand) [8-mer ACATCTGG]” yielded a binding signal (PBM E-score (-0.5 to 0.5)) in series [5] of 0.481. As to “AGGATGAC (double strand) [8-mer AGGATGAC]”, the binding signal (PBM E-score (-0.5 to 0.5)) in [6] amounted to 0.489. Turning to “AGACTACA (double strand) [8-mer AGACTACA]”, the values for the binding signal (PBM E-score (-0.5 to 0.5)) in series [4] and in series [8] were 0.486 and 0.487, respectively. Regarding “GATGACAA (double strand) [8-mer GATGACAA]”, in series [6], the binding signal (PBM E-score (-0.5 to 0.5)) came to 0.498. The sequence “ACAGATGT (double strand) [8-mer ACAGATGT]” came in with a binding signal (PBM E-score (-0.5 to 0.5)) in [5] of 0.478. Take “GGCTACAA (double strand) [8-mer GGCTACAA]”: the binding signal (PBM E-score (-0.5 to 0.5)) in series [4] stood at 0.492; in [9], 0.467. Sequence “CGGGGGGC (double strand) [8-mer CGGGGGGC]” showed a binding signal (PBM E-score (-0.5 to 0.5)) in series [7] of 0.487.

As for “GCTACAAA (double strand) [8-mer GCTACAAA]”, the values for the binding signal (PBM E-score (-0.5 to 0.5)) in [4], in series [9] and in series [8] were 0.489, 0.462 and 0.482, respectively.

In [4], “TGACTACA (double strand) [8-mer TGACTACA]” registered a binding signal (PBM E-score (-0.5 to 0.5)) of 0.491. In the case of “CGACTACA (double strand) [8-mer CGACTACA]”, the binding signal (PBM E-score (-0.5 to 0.5)) in [4] came to 0.487. Take “TAGTCACA (double strand) [8-mer TAGTCACA]”: the binding signal (PBM E-score (-0.5 to 0.5)) in series [1] amounted to 0.482; in [2], 0.493; in series [3], 0.494.

In series [7], “GGGGCCTA (double strand) [8-mer GGGGCCTA]” gave a binding signal (PBM E-score (-0.5 to 0.5)) of 0.487. For “CAGCTGTC (double strand) [8-mer CAGCTGTC]”, the binding signal (PBM E-score (-0.5 to 0.5)) in series [5] turned out to be 0.479. In series [7], “GCCCCCCA (double strand) [8-mer GCCCCCCA]” yielded a binding signal (PBM E-score (-0.5 to 0.5)) of 0.487. On the same count and under the same terms, the value for “AGGGGGGC (double strand) [8-mer AGGGGGGC]” was 0.491. As to “ATATCATC (double strand) [8-mer ATATCATC]”, in series [6], the binding signal (PBM E-score (-0.5 to 0.5)) was found to be 0.485. With “AGGTCACA (double strand) [8-mer AGGTCACA]”, the binding signal (PBM E-score (-0.5 to 0.5)) in series [1] is 0.455; in [2] it was 0.486; in series [3], 0.486. For “ACATATGT (double strand) [8-mer ACATATGT]”, in series [5], the binding signal (PBM E-score (-0.5 to 0.5)) was 0.476. For the sequence “AGGGGCCA (double strand) [8-mer AGGGGCCA]”, the binding signal (PBM E-score (-0.5 to 0.5)) in series [7] stood at 0.492. “ATGATGAC (double strand) [8-mer ATGATGAC]” returned a binding signal (PBM E-score (-0.5 to 0.5)) in [6] of 0.497. Still for that read-out and setting: the value for “ATGTCATC (double strand) [8-mer ATGTCATC]” was 0.494. With “CACAGCTG (double strand) [8-mer CACAGCTG]”, the binding signal (PBM E-score (-0.5 to 0.5)) in series [5] worked out at 0.475. For the sequence “AAGGGGCC (double strand) [8-mer AAGGGGCC]”, in series [7], the binding signal (PBM E-score (-0.5 to 0.5)) amounted to 0.487. In series [7], “AAGGCCCC (double strand) [8-mer AAGGCCCC]” gave a binding signal (PBM E-score (-0.5 to 0.5)) of 0.489.

“AGTCACAA (double strand) [8-mer AGTCACAA]”: the figures for the binding signal (PBM E-score (-0.5 to 0.5)) in [1], in series [2] and in [3] were 0.497, 0.498 and 0.489, respectively. “ACCAGCTG (double strand) [8-mer ACCAGCTG]”: the binding signal (PBM E-score (-0.5 to 0.5)) in series [5] came out at 0.456. In the case of “GGGGGCCA (double strand) [8-mer GGGGGCCA]”, the binding signal (PBM E-score (-0.5 to 0.5)) in series [7] amounted to 0.495. Still for that read-out and setting: the result for “GGCCCCCC (double strand) [8-mer GGCCCCCC]” reads 0.498.

For the sequence “ACTACAAT (double strand) [8-mer ACTACAAT]”, the figures for the binding signal (PBM E-score (-0.5 to 0.5)) in [4], in series [9] and in series [8] were 0.49, 0.49 and 0.488, respectively. In series [6], “AGTCATCA (double strand) [8-mer AGTCATCA]” showed a binding signal (PBM E-score (-0.5 to 0.5)) of 0.491.

The sequence “AACAGCTG (double strand) [8-mer AACAGCTG]” had a binding signal (PBM E-score (-0.5 to 0.5)) in series [5] of 0.481. For the sequence “ACAGCTGT (double strand) [8-mer ACAGCTGT]”, the binding signal (PBM E-score (-0.5 to 0.5)) in series [5] turned out to be 0.496. Sequence “AGGCTACA (double strand) [8-mer AGGCTACA]” showed a binding signal (PBM E-score (-0.5 to 0.5)) in series [4] of 0.488. Take “CGGCTACA (double strand) [8-mer CGGCTACA]”: the binding signal (PBM E-score (-0.5 to 0.5)) in series [4] amounted to 0.488. The sequence “AATGTCAT (double strand) [8-mer AATGTCAT]” gave a binding signal (PBM E-score (-0.5 to 0.5)) in [6] of 0.487. The same measure, in the same setting: the result for “ATGACAAT (double strand) [8-mer ATGACAAT]” reads 0.495. In [4], “GCTACAAC (double strand) [8-mer GCTACAAC]” had a binding signal (PBM E-score (-0.5 to 0.5)) of 0.483. With “ATGGCCCC (double strand) [8-mer ATGGCCCC]”, the binding signal (PBM E-score (-0.5 to 0.5)) in series [7] was 0.487. On the same count and under the same terms, the result for “AGGCCCCT (double strand) [8-mer AGGCCCCT]” reads 0.491.

With “GATGACTA (double strand) [8-mer GATGACTA]”, the binding signal (PBM E-score (-0.5 to 0.5)) in series [6] was 0.489.
